From patent US20240182536A1 (MURAL ONCOLOGY, published 2024)
Residue numbers refer to the chain shown, from its start. Numbers in names are those of the source.

T1: human IL-18 binding protein (human, UniProt O95998 31-194)
T1 sequence (looked up): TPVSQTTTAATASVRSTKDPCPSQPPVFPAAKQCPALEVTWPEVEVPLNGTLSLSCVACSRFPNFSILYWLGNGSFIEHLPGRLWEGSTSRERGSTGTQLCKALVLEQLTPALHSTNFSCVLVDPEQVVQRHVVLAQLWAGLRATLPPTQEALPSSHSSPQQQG

T2: IL-18 receptors on HEK-Blue IL-18 reporter cells (UniProt Q13478 19-541; O95256 20-599, limits assumed)
T2 sequence (looked up) 1: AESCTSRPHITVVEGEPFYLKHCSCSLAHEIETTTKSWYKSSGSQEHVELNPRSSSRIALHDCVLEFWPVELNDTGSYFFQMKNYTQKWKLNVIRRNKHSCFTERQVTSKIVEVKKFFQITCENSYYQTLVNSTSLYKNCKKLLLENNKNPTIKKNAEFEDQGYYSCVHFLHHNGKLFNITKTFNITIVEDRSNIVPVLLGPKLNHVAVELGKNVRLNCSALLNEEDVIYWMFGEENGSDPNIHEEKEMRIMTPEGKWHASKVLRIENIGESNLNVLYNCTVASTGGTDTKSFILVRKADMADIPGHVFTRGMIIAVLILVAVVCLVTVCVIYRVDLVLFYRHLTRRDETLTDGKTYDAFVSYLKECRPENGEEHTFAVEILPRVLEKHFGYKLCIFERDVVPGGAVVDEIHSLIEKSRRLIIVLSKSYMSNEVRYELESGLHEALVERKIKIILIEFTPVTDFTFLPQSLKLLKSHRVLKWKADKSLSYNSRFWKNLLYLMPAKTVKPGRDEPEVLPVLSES
T2 sequence (looked up) 2: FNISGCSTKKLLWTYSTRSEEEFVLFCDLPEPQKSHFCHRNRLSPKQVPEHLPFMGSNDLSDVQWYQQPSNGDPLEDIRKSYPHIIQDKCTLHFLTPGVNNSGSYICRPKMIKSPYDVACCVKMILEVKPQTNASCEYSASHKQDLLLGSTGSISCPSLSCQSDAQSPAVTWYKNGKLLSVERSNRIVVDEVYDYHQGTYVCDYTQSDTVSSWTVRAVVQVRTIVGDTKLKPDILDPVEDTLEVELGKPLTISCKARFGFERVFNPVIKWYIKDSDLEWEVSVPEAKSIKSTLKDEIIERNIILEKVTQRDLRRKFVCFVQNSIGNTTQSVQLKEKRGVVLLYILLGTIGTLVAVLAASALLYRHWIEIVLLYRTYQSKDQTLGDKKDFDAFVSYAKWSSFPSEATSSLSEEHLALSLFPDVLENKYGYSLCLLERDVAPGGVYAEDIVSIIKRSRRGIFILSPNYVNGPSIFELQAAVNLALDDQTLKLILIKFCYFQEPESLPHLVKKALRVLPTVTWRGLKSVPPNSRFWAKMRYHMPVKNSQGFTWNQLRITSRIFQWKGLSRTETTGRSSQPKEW

B1: yeast display IL-18 variant K53T, S55A (ligand)
chain: YFGKLESKLSVIRNLNDQVLFIDQGNRPLFEDMTDSDMRDNAPRTIFIISMYTDAQPRGMAVTISVKSEKISTLSSENKIISFKEMNPPDNIKDTKSDIIFFQRSVPGHDNKMQFESSSYEGYFLASEKERDLFKLILKKEDELGDRSIMFTVQNED
B2: yeast display IL-18 variant K53T, S55P (ligand)
chain: B1 chain with A55P
B3: yeast display IL-18 variant K53D, S55N (ligand)
chain: B1 chain with T53D, A55N
B4: yeast display IL-18 variant E6D, S36F, K53T, S55M, R58K (ligand)
chain: B1 chain with E6D, S36F, A55M, R58K
B5: yeast display IL-18 variant K53G, S55I (ligand)
chain: B1 chain with T53G, A55I
B6: yeast display IL-18 variant L5W, I22M, K53N, S55Y, Q56H (ligand)
chain: B1 chain with L5W, I22M, T53N, A55Y, Q56H
B7: yeast display IL-18 variant K53G, S55V (ligand)
chain: B1 chain with T53G, A55V
B8: yeast display IL-18 variant K53T, S55M, R58K (ligand)
chain: B1 chain with A55M, R58K
B9: yeast display IL-18 variant K53S, S55Y (ligand)
chain: B1 chain with T53S, A55Y
B10: yeast display IL-18 variant T34I, S36T, D40A, N41M, K53T, S55Y (ligand)
chain: B1 chain with T34I, S36T, D40A, N41M, A55Y
B11: yeast display IL-18 variant K53T, S55F (ligand)
chain: B1 chain with A55F
B12: yeast display IL-18 variant K53S, S55G (ligand)
chain: B1 chain with T53S, A55G
B13: yeast display IL-18 variant S36E, D37E, D40K, N41T, K53T, S55Q, R104H (ligand)
chain: B1 chain with S36E, D37E, D40K, N41T, A55Q, R104H

Experiments:
[1] = target: T1, human IL-18 binding protein; experiment: cell-based or functional assay
[2] = target: T2, IL-18 receptors on HEK-Blue IL-18 …; experiment: cell-based or functional assay

Binder	HEK-Blue activity, +100 nM BP, DF-10000 [1]	HEK-Blue activity, +100 nM BP, DF-100,000 [1]	HEK-Blue activity, +100 nM BP, DF-1,000,000 [1]	Ratio (-BP/+BP), DF-10000 [1]	Ratio (-BP/+BP), DF-100,000 [1]	Ratio (-BP/+BP), DF-1,000,000 [1]	HEK-Blue activity, No BP, DF-10000 [2]	HEK-Blue activity, No BP, DF-100,000 [2]	HEK-Blue activity, No BP, DF-1,000,000 [2]
B1	1.85	0.95	0.32	0.97	1	0.89	1.8	0.96	0.29
B2	1.53	0.65	0.21	0.93	0.91	0.79	1.42	0.59	0.16
B3	0.47	0.12	0.09	0.95	1.05	1	0.45	0.13	0.09
B4	0.5	0.14	0.09	0.96	1.02	0.96	0.48	0.14	0.09
B5	0.76	0.19	0.13	0.77	0.73	0.7	0.59	0.14	0.09
B6	0.72	0.23	0.21	1.05	0.91	0.61	0.75	0.21	0.13
B7	0.57	0.15	0.1	0.98	1.01	1.03	0.56	0.15	0.1
B8	0.72	0.21	0.17	1.08	0.92	0.72	0.78	0.2	0.12
B9	1.52	0.55	0.21	0.93	0.97	0.9	1.41	0.54	0.19
B10	0.37	0.12	0.12	1.03	1.45	1.18	0.38	0.18	0.14
B11	0.6	0.18	0.25	1.12	1.09	0.64	0.67	0.2	0.16
B12	1.83	0.97	0.27	0.93	0.95	1.1	1.71	0.91	0.3
B13	0.81	0.21	0.14	1	1.01	1.22	0.81	0.22	0.17
